# Experimental data taken from patent publication US6083917.
# Several values for one entry are separate records, joined by “and”; a condition that tells them apart may be missing. Equal values may be shown once.
# Target: rat brain protein farnesyltransferase (rat)
row,Substance,Concentration for 50% Inhibition (farnesylation of p21^H-ras) [µM]
1,CCVQ (peptide),0.35
2,CSIM (peptide),0.2
3,CAIL (peptide),100
4,CVLM (peptide),0.15
5,CVIM (peptide),0.15
6,CIKS (peptide),> 100
7,CVVM (peptide),0.15
8,CTVA (peptide),30
9,CAIM (peptide),0.15
10,CIIS (peptide),0.35
11,CLLL (peptide),22
12,CVIA (peptide),5
13,CIIM (peptide),0.15
14,CLIL (peptide),17

# Results, then the substance that gave them:
row,Concentration for 50% Inhibition (farnesylation of p21^H-ras) [µM],Substance
1,1,CVIS (peptide)
2,3,CVLS (peptide)
3,0.35,CIIC (peptide)
4,11,CVIL (peptide)

# Target: rat brain protein farnesyltransferase (rat)
# Remark: another data set of the same source
row,Substance,Concentration for 50% Inhibition of Farnesylation of p21^H-ras
1,CVIM (peptide),0.15 µM
2,CCVFM (peptide),0.44 µM
3,N-AcCCVFM (peptide),0.11 µM
4,CVWM (peptide),0.32 µM
5,N-AcCVFM (peptide),0.25 µM
6,CVFM (peptide),0.06 µM and 0.032 µM and 0.09 µM
7,N-AcECVFM (peptide),2.4 µM
8,N-AcDCVFM (peptide),1.9 µM
9,N-AcKCVFM (peptide),0.3 µM
10,N-CholylCVFM (peptide),0.21 µM
11,N-AcCVWM (peptide),3.7 µM

# More lines, now with the values ahead:
row,Concentration for 50% Inhibition of Farnesylation of p21^H-ras,Substance
1,0.35 µM,N-Octanoyl-CVFM (peptide)
2,0.43 µM,N-AcGCVFM (peptide)
3,0.24 µM,N-AcHCVFM (peptide)
4,1.1 µM,KCVFM (peptide)
5,0.15 µM,N-AcCVIM (peptide)
6,0.23 µM,N-AcSCVFM (peptide)
7,1.4 µM,N-AcMCVFM (peptide)
8,0.2 µM,N-AcPCVFM (peptide)

# Target: rat brain protein farnesyltransferase (rat)
# Remark: another data set of the same source
row,affinity for the enzyme as estimated by the concentration required for 50% inhibition [fold],Substance
1,> 30,CVIM with lysine at the X position (peptide)
2,> 30,CVIA (peptide)
3,> 30,CVIM with lysine at the A2 position (peptide)
4,> 30,CVAM (peptide)

# Target: rat brain protein farnesyltransferase (rat)
# Remark: another data set of the same source
affinity for the enzyme relative to CVIM (from 50% inhibition) [fold],half-maximal inhibition of farnesylation of p21^H-ras [nM],Substance
6,25,CVFM (peptide)

# Target: rat brain protein farnesyltransferase (rat)
# Remark: another data set of the same source
Substance,Concentration for 50% Inhibition of Farnesylation of p21^H-ras [µM],affinity for the enzyme (from 50% inhibition) [fold]
CKIM (peptide),0.7,–
CVIM with glutamic acid at the A2 position (peptide),–,> 50
CGIM (peptide),4,–
CVIM with glycine at the A2 position (peptide),8,–

# The remaining lines, values ahead:
Concentration for 50% Inhibition of Farnesylation of p21^H-ras [µM],affinity for the enzyme (from 50% inhibition) [fold],Substance
1.5,–,CEIM (peptide)
20,–,CVPM (peptide)
8,–,CPIM (peptide)
–,> 50,CVIM with lysine at the A2 position (peptide)

# Target: rat brain protein farnesyltransferase (rat)
# Remark: another data set of the same source
row,Substance,Concentration for 50% Inhibition of Farnesylation of p21^H-ras [µM]
1,CVIM with lysine at the X position (peptide),> 40
2,CVIF (peptide),0.5

# More lines, now with the values ahead:
row,Concentration for 50% Inhibition of Farnesylation of p21^H-ras [µM],Substance
1,> 40,CVIM with glutamic acid at the X position (peptide)
2,> 40,CVIM with glycine at the X position (peptide)

# Target: rat brain protein farnesyltransferase (rat)
# Remark: another data set of the same source
row,Concentration for 50% Inhibition of Farnesylation of p21^H-ras [µM],Substance
1,12,CVIL (peptide)

# Target: rat brain protein farnesyltransferase (rat)
# Remark: another data set of the same source
row,concentration giving 50% inhibition of farnesylation of p21^H-ras (FIG. 23A) [µM],Substance
1,0.27,N-AcCVFM (peptide)
2,0.07,CVFM (peptide)
